Measurements from PMC4075942 (Nature structural & molecular biology, 2014).
Substitutions are numbered along the chain they refer to. Names and notes keep the numbering of the source. Values joined by “and” are separate entries in the source; they are usually repeats but may differ in a detail not shown here. Equal values may be shown once.

B1: Cas2 from Escherichia coli K12 (MG1655), untagged, purified (enzyme, E. coli K12 (MG1655))
chain: MSMLVVVTENVPPRLRGRLAIWLLEVRAGVYVGDVSAKIREMIWEQIAGLAEEGNVVMAWATNTETGFEFQTFGLNRRTPVDLDGLRLVSFLPV
B2: Cas1 from Escherichia coli K12 (MG1655), untagged, purified (enzyme, E. coli K12 (MG1655))
chain: MTWLPLNPIPLKDRVSMIFLQYGQIDVIDGAFVLIDKTGIRTHIPVGSVACIMLEPGTRVSHAAVRLAAQVGTLLVWVGEAGVRVYASGQPGGARSDKLLYQAKLALDEDLRLKVVRKMFELRFGEPAPARRSVEQLRGIEGSRVRATYALLAKQYGVTWNGRRYDPKDWEKGDTINQCISAATSCLYGVTEAAILAAGYAPAIGFVHTGKPLSFVYDIADIIKFDTVVPKAFEIARRNPGEPDREVRLACRDIFRSSKTLAKLIPLIEDVLAAGEIQPPAPPEDAQPVAIPLPVSLGDAGHRSS
B3: Cas1 R252E, purified (enzyme, E. coli K12 (MG1655))
chain: B2 chain with R252E

Columns and labels:
crystal structure = molecular target: the molecule itself; assay: crystal structure
[1] = molecular target: B2; assay: ITC
[2] = molecular target: B1; assay: AUC
[3] = molecular target: B1; assay: ITC
SEC = molecular target: the molecule itself; assay: SEC

Row | Kd [1] [nM] | stoichiometry N [2] [Cas1 dimer per Cas2 dimer] | KD of a single run [3] | stoichiometry N [3] | Binder | stoichiometry N (crystal structure) | stoichiometry N (SEC)
1 | ~290 |  |  |  | B1 | 2 | 
2 |  | 1 | 308 nM and 212 nM and 351 nM | ~1.5 Cas1 to Cas2 | B2 | 2 | 
3 |  |  |  |  | B3 |  | 2
